{"source": "patent US20190025332A1", "key": {"[1]": {"molecular_target": "wild type human MIC-1 (human) (UniProt Q99988)", "sequence (Q99988 197-308 limits assumed)": "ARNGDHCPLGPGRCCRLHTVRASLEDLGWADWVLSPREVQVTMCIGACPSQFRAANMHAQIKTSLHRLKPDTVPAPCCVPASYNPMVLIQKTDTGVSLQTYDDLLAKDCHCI", "assay": "SPR blocking; wtMIC-1 mixed with 8 nM mIgG1, over immobilised mGFRAL(ECR)-Fab; RU of wtMIC-1 binding"}, "[2]": {"molecular_target": "wild type human MIC-1 (human) (UniProt Q99988)", "assay": "SPR blocking; wtMIC-1 mixed with 0.5 nM mIgG1, over immobilised mGFRAL(ECR)-Fab; RU of wtMIC-1 binding"}, "[3]": {"molecular_target": "wild type human MIC-1 (human) (UniProt Q99988)", "assay": "SPR blocking; wtMIC-1 mixed with 0.125 nM mIgG1, over immobilised hGFRAL(ECR)-Fab; RU of wtMIC-1 binding"}, "[4]": {"molecular_target": "wild type human MIC-1 (human) (UniProt Q99988)", "assay": "SPR blocking; wtMIC-1 mixed with 0.125 nM mIgG1, over immobilised mGFRAL(ECR)-Fab; RU of wtMIC-1 binding"}, "[5]": {"molecular_target": "wild type human MIC-1 (human) (UniProt Q99988)", "assay": "SPR blocking; wtMIC-1 mixed with 4 nM mIgG1, over immobilised hGFRAL(ECR)-Fab; RU of wtMIC-1 binding"}, "[6]": {"molecular_target": "wild type human MIC-1 (human) (UniProt Q99988)", "assay": "SPR blocking; wtMIC-1 mixed with 2 nM mIgG1, over immobilised mGFRAL(ECR)-Fab; RU of wtMIC-1 binding"}, "[7]": {"molecular_target": "wild type human MIC-1 (human) (UniProt Q99988)", "assay": "SPR blocking; wtMIC-1 mixed with 4 nM mIgG1, over immobilised mGFRAL(ECR)-Fab; RU of wtMIC-1 binding"}, "[8]": {"molecular_target": "wild type human MIC-1 (human) (UniProt Q99988)", "assay": "SPR blocking; wtMIC-1 mixed with 0.25 nM mIgG1, over immobilised hGFRAL(ECR)-Fab; RU of wtMIC-1 binding"}, "[9]": {"molecular_target": "wild type human MIC-1 (human) (UniProt Q99988)", "assay": "SPR blocking; wtMIC-1 mixed with 2 nM mIgG1, over immobilised hGFRAL(ECR)-Fab; RU of wtMIC-1 binding"}, "[10]": {"molecular_target": "wild type human MIC-1 (human) (UniProt Q99988)", "assay": "SPR blocking; wtMIC-1 mixed with 0 nM mIgG1, over immobilised hGFRAL(ECR)-Fab; RU of wtMIC-1 binding"}, "[11]": {"molecular_target": "wild type human MIC-1 (human) (UniProt Q99988)", "assay": "SPR blocking; wtMIC-1 mixed with 0 nM mIgG1, over immobilised mGFRAL(ECR)-Fab; RU of wtMIC-1 binding"}, "[12]": {"molecular_target": "wild type human MIC-1 (human) (UniProt Q99988)", "assay": "SPR blocking; wtMIC-1 mixed with 1 nM mIgG1, over immobilised hGFRAL(ECR)-Fab; RU of wtMIC-1 binding"}, "[13]": {"molecular_target": "wild type human MIC-1 (human) (UniProt Q99988)", "assay": "SPR blocking; wtMIC-1 mixed with 8 nM mIgG1, over immobilised hGFRAL(ECR)-Fab; RU of wtMIC-1 binding"}, "[14]": {"molecular_target": "wild type human MIC-1 (human) (UniProt Q99988)", "assay": "SPR blocking; wtMIC-1 mixed with 0.25 nM mIgG1, over immobilised mGFRAL(ECR)-Fab; RU of wtMIC-1 binding"}, "[15]": {"molecular_target": "wild type human MIC-1 (human) (UniProt Q99988)", "assay": "SPR blocking; wtMIC-1 mixed with 1 nM mIgG1, over immobilised mGFRAL(ECR)-Fab; RU of wtMIC-1 binding"}, "[16]": {"molecular_target": "wild type human MIC-1 (human) (UniProt Q99988)", "assay": "SPR blocking; wtMIC-1 mixed with 0.5 nM mIgG1, over immobilised hGFRAL(ECR)-Fab; RU of wtMIC-1 binding"}}, "data": [{"substance": "isotype control (mIgG1) (antibody)", "values": [{"measurement": "Response (RU)", "setting": "[1]", "result": 55.5, "unit": "RU"}, {"measurement": "Response (RU)", "setting": "[2]", "result": 55, "unit": "RU"}, {"measurement": "Response (RU)", "setting": "[3]", "result": 58.4, "unit": "RU"}, {"measurement": "Response (RU)", "setting": "[4]", "result": 55.3, "unit": "RU"}, {"measurement": "Response (RU)", "setting": "[5]", "result": 59.1, "unit": "RU"}, {"measurement": "Response (RU)", "setting": "[6]", "result": 54.5, "unit": "RU"}, {"measurement": "Response (RU)", "setting": "[7]", "result": 55.4, "unit": "RU"}, {"measurement": "Response (RU)", "setting": "[8]", "result": 59.4, "unit": "RU"}, {"measurement": "Response (RU)", "setting": "[9]", "result": 60, "unit": "RU"}, {"measurement": "Response (RU)", "setting": "[10]", "result": 58.3, "unit": "RU"}, {"measurement": "Response (RU)", "setting": "[11]", "result": 55.6, "unit": "RU"}, {"measurement": "Response (RU)", "setting": "[12]", "result": 59.3, "unit": "RU"}, {"measurement": "Response (RU)", "setting": "[13]", "result": 59.4, "unit": "RU"}, {"measurement": "Response (RU)", "setting": "[14]", "result": 54.6, "unit": "RU"}, {"measurement": "Response (RU)", "setting": "[15]", "result": 54.1, "unit": "RU"}, {"measurement": "Response (RU)", "setting": "[16]", "result": 58.4, "unit": "RU"}]}]}
